B1: z1C1 promoter WT probe (dsDNA)
DNA 1: TCTACTAAGCTTGTTCAACCACGAGAAGAATATTAG
DNA 2: CTAATATTCTTCTCGTGGTTGAACAAGCTTAGTAGA
B2: Ae1 promoter WT probe (dsDNA)
DNA 1: GAGAATGAAAGCGAACTGTTGCTCACGGACTCTAAG
DNA 2: CTTAGAGTCCGTGAGCAACAGTTCGCTTTCATTCTC
B3: z1D2 promoter WT probe (dsDNA)
DNA 1: GTTGAAATTGATTGATATCCACAAATTTTGTTAA
DNA 2: TTAACAAAATTTGTGGATATCAATCAATTTCAAC
B4: Bt1 promoter WT probe (dsDNA)
DNA 1: CACGCGCCGCCATTTCTGTTGCGAATGAGTCCATGG
DNA 2: CCATGGACTCATTCGCAACAGAAATGGCGGCGCGTG

molecular target: ZmMYB127 (Zea mays (inbred B73), UniProt A0A804N6V3 1-263); assay: EMSA; EMSA with LightShift Chemiluminescent EMSA kit protocol, 25 °C, 30 min, native PAGE; buffer, salt and pH not stated; details: protein: recombinant; tags: GST (N-terminal, pGEX-6T); label: biotin (end); blunt
Sequence (A0A804N6V3 entry or part of it): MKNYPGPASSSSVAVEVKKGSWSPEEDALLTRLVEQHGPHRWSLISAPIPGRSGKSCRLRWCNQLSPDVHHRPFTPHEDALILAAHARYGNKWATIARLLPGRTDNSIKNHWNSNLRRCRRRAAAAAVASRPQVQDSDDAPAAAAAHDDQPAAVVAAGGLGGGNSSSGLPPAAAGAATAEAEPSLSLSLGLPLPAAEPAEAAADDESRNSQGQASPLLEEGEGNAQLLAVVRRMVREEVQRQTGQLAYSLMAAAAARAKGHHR

Binding result, binds:
B1
B2
B3
B4

From publication PMC12906810, “ZmMYB127 Modulates Maize Kernel Texture and Size by Integrating the Synthesis of Starch, Zein Proteins and Auxin”
